Test results taken from US20180185504A1 (Regeneron, published 2018).
Substitutions are numbered along the chain they refer to. Numbers in names are those of the source. Where two headings read alike, the source gives them in different places.

Tests used:
[1] = target: T1, mouse PRLR with an HA tag on HEK293 cells (mouse, UniProt Q08501 20-608); experiment: FACS on HEK293/mPRLR cells
T1 construct: whole, on cells; also called HEK293/mPRLR; rodent PRLR; not shown: HA tag
T1 sequence (looked up): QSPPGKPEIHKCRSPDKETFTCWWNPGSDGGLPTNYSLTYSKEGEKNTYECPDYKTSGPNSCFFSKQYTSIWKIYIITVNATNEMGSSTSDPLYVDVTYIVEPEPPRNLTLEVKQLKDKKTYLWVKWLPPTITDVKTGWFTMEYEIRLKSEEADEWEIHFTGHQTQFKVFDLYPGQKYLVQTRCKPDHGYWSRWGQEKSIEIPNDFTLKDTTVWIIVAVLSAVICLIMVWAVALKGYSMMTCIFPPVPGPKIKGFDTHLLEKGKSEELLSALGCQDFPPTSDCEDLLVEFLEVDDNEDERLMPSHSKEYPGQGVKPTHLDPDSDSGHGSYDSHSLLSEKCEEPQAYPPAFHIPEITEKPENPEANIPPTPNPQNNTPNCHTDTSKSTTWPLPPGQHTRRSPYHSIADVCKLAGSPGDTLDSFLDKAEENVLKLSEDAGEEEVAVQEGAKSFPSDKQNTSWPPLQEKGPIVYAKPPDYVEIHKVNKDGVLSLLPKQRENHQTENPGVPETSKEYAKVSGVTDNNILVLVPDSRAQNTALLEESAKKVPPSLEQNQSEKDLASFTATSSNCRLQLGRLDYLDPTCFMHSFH

[2] = target: T2, human PRLR construct with an HA tag on HEK293/hPRLR cells (human, UniProt P16471 25-622); experiment: FACS on HEK293/hPRLR cells
T2 sequence: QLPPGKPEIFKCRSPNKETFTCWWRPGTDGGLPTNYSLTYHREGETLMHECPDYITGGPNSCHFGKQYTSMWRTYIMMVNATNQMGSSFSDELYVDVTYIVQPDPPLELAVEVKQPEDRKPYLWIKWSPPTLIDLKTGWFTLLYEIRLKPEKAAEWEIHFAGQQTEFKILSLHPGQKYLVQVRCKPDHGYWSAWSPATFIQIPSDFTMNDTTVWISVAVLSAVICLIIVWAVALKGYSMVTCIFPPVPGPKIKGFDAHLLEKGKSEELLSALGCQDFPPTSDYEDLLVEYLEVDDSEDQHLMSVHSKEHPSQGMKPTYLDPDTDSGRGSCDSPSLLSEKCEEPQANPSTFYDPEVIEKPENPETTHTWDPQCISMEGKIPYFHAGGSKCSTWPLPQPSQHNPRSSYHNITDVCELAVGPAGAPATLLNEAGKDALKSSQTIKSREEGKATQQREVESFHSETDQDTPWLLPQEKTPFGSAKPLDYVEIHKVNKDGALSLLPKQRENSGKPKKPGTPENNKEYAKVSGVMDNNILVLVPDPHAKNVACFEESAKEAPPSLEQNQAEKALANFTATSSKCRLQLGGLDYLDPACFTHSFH

[3] = target: T3, human PRLR on cells (endogenous on T47D, T47D#11, MCF7); introduced in HEK293/hPRLR/STAT5-Luc, 293/hPRLR, … (human, UniProt P16471 25-622); experiment: imaging of alexa488 intensity on T47D cells
T3 construct: no tag is stated for these lines; also called prolactin receptor
T3 sequence: T2 sequence
Protocol: Briefly, 20,000 T47D cells were seeded in collagen coated 96 well plates. […] Cells were then incubated with alexa488 conjugated anti-hFc Fab secondary antibodies for 30 minutes on ice followed by two additional PBS washes. Antibodies were allowed to internalize for 1 h at 37° C. in internalization buffer (PBS+2% FBS) or remained at 4° C. Cells were fixed in 4% formaldehyde, nuclei were stained with DRAQ5 (Cell signaling), and images were acquired on the ImageXpress micro XL (Molecular Devices). Whole cell alexa488 intensity at 37° C. (Binding) and the alexa488 intensity in the intracellular vesicles at 37° C. (Internalization) were determined via Columbus image analysis software (PerkinElmer).

[4] = target: T3, human PRLR on cells (endogenous on …); experiment: cell-based or functional assay
[5] = target: T3, human PRLR on cells (endogenous on …); experiment: cell-based or functional assay; remark: listed apart in the source
[6] = target: T4, monkey macaca fascicularis PRLR construct with an HA tag on HEK293/mfPRLR cells (macaca fascicularis, UniProt A0A2K5WXK1 25-619); experiment: FACS on HEK293/mfPRLR cells
T4 construct: stably transfected into HEK293
T4 sequence: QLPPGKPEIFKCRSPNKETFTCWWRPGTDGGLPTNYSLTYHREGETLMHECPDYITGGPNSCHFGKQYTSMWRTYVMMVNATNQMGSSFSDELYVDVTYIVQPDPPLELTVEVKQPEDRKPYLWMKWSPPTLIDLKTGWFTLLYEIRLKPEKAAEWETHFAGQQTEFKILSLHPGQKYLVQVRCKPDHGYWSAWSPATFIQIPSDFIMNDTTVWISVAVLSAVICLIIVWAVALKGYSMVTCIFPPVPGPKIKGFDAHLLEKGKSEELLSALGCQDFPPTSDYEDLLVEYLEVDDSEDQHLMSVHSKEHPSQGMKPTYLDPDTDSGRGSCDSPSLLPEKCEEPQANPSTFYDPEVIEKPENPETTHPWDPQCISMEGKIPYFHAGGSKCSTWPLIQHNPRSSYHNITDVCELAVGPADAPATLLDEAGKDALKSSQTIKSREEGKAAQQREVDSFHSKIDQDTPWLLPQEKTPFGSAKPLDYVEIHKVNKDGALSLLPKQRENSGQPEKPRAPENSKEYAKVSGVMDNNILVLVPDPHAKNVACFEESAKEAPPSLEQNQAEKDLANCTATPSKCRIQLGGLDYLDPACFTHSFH

[7] = target: T3, human PRLR on cells (endogenous on …); experiment: FACS on T47D cells
[8] = target: T5, hPRLR.mmh (soluble monomeric human PRLR) (human); experiment: SPR (Biacore), antibody capture, 37 C
T5 construct: soluble monomeric PRLR protein
T5 chain: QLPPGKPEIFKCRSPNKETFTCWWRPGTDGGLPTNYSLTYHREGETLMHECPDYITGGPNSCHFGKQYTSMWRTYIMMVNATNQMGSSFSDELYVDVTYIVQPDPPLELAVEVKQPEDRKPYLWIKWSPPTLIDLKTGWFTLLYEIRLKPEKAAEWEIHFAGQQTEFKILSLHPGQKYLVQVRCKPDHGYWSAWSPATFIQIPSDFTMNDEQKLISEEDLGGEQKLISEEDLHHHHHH
Protocol: (§1) Measurements were conducted on a T200 Biacore instrument. Kinetic association (kₐ) and dissociation (kd) rate constants were determined by processing and fitting the data to a 1:1 binding model using Scrubber 2.0 curve fitting software.

[9] = target: T6, mfPRLR.mmh (soluble monomeric macaca fascicularis PRLR) (macaca fascicularis); experiment: SPR (Biacore), antibody capture, 37 C
T6 construct: soluble monomeric PRLR protein; also called macaca fascicularis (mf) PRLR.mmh; monkey PRLR
T6 chain: T5 chain with I76V, A110T, I125M, I158T, T207I
Protocol: as §1

[10] = target: T7, hPRLR.mFc (soluble dimeric human PRLR) (human); experiment: SPR (Biacore), antibody capture, 37 C
T7 construct: dimeric PRLR construct
T7 chain: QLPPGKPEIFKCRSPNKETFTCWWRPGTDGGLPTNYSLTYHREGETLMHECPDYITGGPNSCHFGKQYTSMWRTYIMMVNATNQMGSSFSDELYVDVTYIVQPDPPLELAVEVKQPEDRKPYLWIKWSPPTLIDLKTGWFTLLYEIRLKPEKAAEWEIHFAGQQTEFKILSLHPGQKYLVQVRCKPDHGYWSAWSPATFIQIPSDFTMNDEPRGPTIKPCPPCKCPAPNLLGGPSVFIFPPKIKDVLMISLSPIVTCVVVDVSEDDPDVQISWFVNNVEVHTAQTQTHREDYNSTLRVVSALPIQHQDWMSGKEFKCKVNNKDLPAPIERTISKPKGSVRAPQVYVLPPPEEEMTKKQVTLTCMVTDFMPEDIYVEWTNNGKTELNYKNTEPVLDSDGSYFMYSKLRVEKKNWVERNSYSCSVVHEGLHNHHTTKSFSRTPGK
Protocol: as §1

[11] = target: T8, human prolactin receptor (PRLR) (human, UniProt P16471 25-622); experiment: cell-based or functional assay
T8 sequence: T2 sequence

[12] = target: T8, human prolactin receptor (PRLR); experiment: cell-based or functional assay; remark: listed apart in the source
[13] = target: T8, human prolactin receptor (PRLR); experiment: cell-based or functional assay; remark: listed apart in the source
[14] = target: T8, human prolactin receptor (PRLR); experiment: cell-based or functional assay; remark: listed apart in the source
[15] = target: T8, human prolactin receptor (PRLR); experiment: cell-based or functional assay; remark: listed apart in the source

B1: H1H6795P (antibody, human IgG1, V domains shown)
VH: QVQLVQSGAEVKKPGASVKVSCKASGYTFGTSGITWVRQAPGQGLEWMGWSSAYNGKTDYAQKFQDRVTMTTDTSTTTGYMEMRSLTSDDTAVYYCTTVVRRPFDFWGQGTLVTVSS
VL: DIQMTQSPSSLSASVGDRVTITCRASQDINNFLAWFQQKPGKAPKSLIYAASSLQSGVPSKFSGGGSGTDFALTISSLQPEDFATYYCQQYSSYPITFGQGTRLEIK
- binding result [1]: no binding

B2: H1H6801P (antibody, human IgG1, V domains shown)
VH: QVQLQQSGPGLVKPSQTLSLTCVISGDSVSSNTAWNWVRQSPSRGLEWLGRTYYRSKWYNDYAVSVKSRITINPDTSKNQFSLLMNSVTPEDTAVYYCARVVRGLNYFDYWGQGTLVTVSS
VL: DIVMTQSPDSLAVSLGERATINCKSSQSVLYNSNNKNYLAWYQQKPGQPPKLLIYWSSSRESGVPDRFSGSGSGTDFTLTISGLQAEDVAIYYCQQYSTIPYTFGQGTKLEIK
notes: human IgG1 Fc (H1H)
- FACS Cell Binding (Fold Above Background) [2]: 47 fold
- % Total Binding relative to Control I [3]: 156%
- % Internalization relative to Control I (T47D cells, imaging) [4]: 149%
- IC50 of Blocking 5 nM PRL [M] (STAT5-Luc reporter, HEK293/hPRLR/STAT5-Luc cells) [5]: 1.4e-10 M
- Percent Blocking at 100 nM Antibody (STAT5-Luc reporter) [5]: 100%
- FACS Cell Binding (Fold Above Background) [6]: 88 fold
- FACS Cell Binding (Fold Above Background) [7]: 45 fold
- Kd [8]: 4.63 nM
- T 1/2 [8]: 3 min
- koff [8]: 0.00441 s⁻¹
- kon [8]: 951000 M⁻¹ s⁻¹
- Kd [9]: 10.8 nM
- T 1/2 [9]: 1 min
- koff [9]: 0.00771 s⁻¹
- kon [9]: 711000 M⁻¹ s⁻¹
- Kd [10]: 0.279 nM
- T 1/2 [10]: 52 min
- koff [10]: 0.000221 s⁻¹
- kon [10]: 793000 M⁻¹ s⁻¹

B3: H1H6793P (antibody, human IgG1, V domains shown)
VH: EVQLVESGGGLVQPGGSLRLSCAASGFSFSIYAMSWFRQAPGKGLEWVSAINGRGDGTHYADSVKGRFTISRDNSKTTLYLQMSSLRAEDTAVYYCAKPVMSTNGFDIWGQGTMVTVSS
VL: DIQMTQSPSTLSASVGDRVTITCRASQSISSWLAWYQLKPGKAPKLLIYKASNLESGVPSRFSGSGSGTEFTLTISSLQPDDFATYYCQQYNIYWTFGQGTKVEIK
- binding result [1]: no binding

B4: H1H6765P-DM1 (antibody, human IgG1, V domains shown)
VH: EVQLVESGGGVVRPGGSLRLSCVGSGFSFDDHGMNWVRQGPGKGLEWVSGFNWNGGSTNYAESVKGRFTISRDNARNSLFLQMNSLRAEDTALYYCVRGRSGWFNDAFDVWGPGTMVTVSS
VL: EIVLTQSPGTLSLSPGERATLSCRASQTINSNYLAWYRQKPGQTPRLLIYGTSSRATGIPDRFSGSGSGTDFSLTISRLEPEDFAVFYCQQYAGLPTFGPGTKVDIK
modifications: DM1 conjugated through SMCC linker; attachment residues not stated
- % Kill, MCF7/ATCC cells [11]: 71%
- % Kill, MCF7/PRLR cells [11]: 81%
- % Kill, PC3/hPRLR cells [11]: 83%
- IC50, cell viability, MCF7/ATCC cells [11]: 90 nM
- IC50, cell viability, MCF7/PRLR cells [11]: 0.1 nM
- IC50, cell viability, PC3/hPRLR cells [11]: 0.3 nM
- % Kill, MCF7/PRLR cells [12]: 84%
- % Kill, MCF7 cells [12]: 68%
- % Kill, T47D cells [12]: 78%
- IC50, cell viability, MCF7/PRLR cells [12]: 0.18 nM
- IC50, cell viability, MCF7 cells [12]: 150 nM
- IC50, cell viability, T47D cells [12]: 1.63 nM
- % Kill, MCF7/ATCC cells [13]: 70%
- % Kill, MCF7/PRLR cells [13]: 90%
- IC50, cell viability, MCF7/ATCC cells [13]: 150 nM
- IC50, cell viability, MCF7/PRLR cells [13]: 0.3 nM
- % Kill, PC3/PRLR cells [14]: 70%
- IC50, cell viability, PC3/PRLR cells [14]: 0.57 nM
- % Kill, T47D cells [15]: 90%
- IC50, cell viability, T47D cells [15]: 1 nM
